Assay results published in the nanobody polyreactivity screen of Harvey et al. (2022).

Test: yeast display, Sf9 membrane polyspecificity reagent, FACS + sequencing; frameworks hold sequencing errors
Method in brief: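 Polyreactivity labels are assigned by the sorting gate from which each nanobody was recovered. The gates were low and high (top ~1%), set on anti-HA fluorescence for expression and streptavidin fluorescence for reagent binding. Before sorting, galactose-induced (36–48 hours) yeast display cells were stained for 1 hour at 4 °C with 10% biotinylated, detergent-solubilized Sf9 membrane reagent.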

With “QVQLVESGGGLVQAGGSLRLSCAASGFIFAYYVMGWYRQAPGKERELVAAISRGGGSTYYADSVKGRFTISRDNAKNTVYLQMNSLKPEDTAVYYCATYSHALRYDYWGQGTQVTVSS” the “polyreactivity (PSR sort gate)” value was “high polyreactivity”.
For “QVQLVESGGGLVQAGGSLRLSCAASGITFLTYTMGWYRQAPGKERELVAAISRSGGRTYYADSVKGRFTISRDNAKNTVYLQMNSLKPEDTAVYYCAAVSANQDFDYWGQGTQVTVSS”, the “polyreactivity (PSR sort gate)” value was “high polyreactivity”.
For “QVQRVESGGGLVQAGGSLRLSCAASGFIFWRYAMGWYRQAPGKERELVATITSSGGTTHYADSVKGRFTISRDNAKNTVYLQMNSLKPEDTAVYYCAKALVVQYGRYTGHPYDYWGQGTQVTVSS”, the “polyreactivity (PSR sort gate)” value was “high polyreactivity”.
With “QVQLVESGGGLVQAGGSLLLSCAASGRTFTGYAMGGYRQAPVKERELVAAISASGGSTYYADSVKGRFTISRDNAKNTVYLQMNSLIPEDTAVYYCAAETWYSVLWEEGYDYWGQGTQVTVSS” the “polyreactivity (PSR sort gate)” value was “low polyreactivity”.
With “QVQLVESGGGLVQAGGSLRLSCAASGSNFGANAMGWYRQAPGKEREFVAAISGSGTTTYYADSVKGRFTISRDNAKNTVYLQMNSLKPEDTAVYYCAKTRKAHWLGYWGQGTQVTVSS” the “polyreactivity (PSR sort gate)” value was “low polyreactivity”.
With “QVQLVESGGGLVQAGGSLRLSCAASGSIFYTYVMGWYRQAPGKERELVAAITWSGGSTYYADSVKGRFTISRDNAKNTVYLQMNSLKPEDTAVYYCAAVRGYRSSKYDYWGQGTQVTVSS” the “polyreactivity (PSR sort gate)” value was “high polyreactivity”.
For “QVQLVESGGALVQAGGSLRLSCAASGSIFDHNAMGWYRQAPGKERELVAAITWSGTSTYYADSVKGRFTISRDNAKNTVYLQMNSLIPEETAVYYCAAYLYGAVRAYPYRWGRYNYWGQGTQVTVSS”, the “polyreactivity (PSR sort gate)” value was “high polyreactivity”.
With “QVQLVESGGVVVQAGGSLRLSCAASGFTIDYYAMGWYRQARGQERELVATINGASYTNYADSVKGRFTISRDNAKNTVYLQMNSLKPEDTAVYYCNARYYGPDFVLAYDYWGQGTQVTVSS” the “polyreactivity (PSR sort gate)” value was “low polyreactivity”.
With “QVQLVESGGGLVQAGGSLRLSCAASGTTISANAMGWYRQAPGKERELVAAIRWSDGRTYYADSVKGRFTISRDNAKNTVYLQMNSLKPEDTAVYYCNRVLSYHRHKLGMGYWGQGTQVTVSS” the “polyreactivity (PSR sort gate)” value was “high polyreactivity”.
In the case of “QVQLVESAGGLVQAGGSLRLSCAASGLTFTGNAIGWYRQAPGKERQCVAAIRWSAGSTYYADSVKGRVTISRDNAKNTVYLQMNSLKPEDTAVYYCNAALNVSGHYPNDYWGQGTQVTVSS”, the “polyreactivity (PSR sort gate)” value is reported as “low polyreactivity”.
In the case of “QVQLVESGGGLVQAGGSLRLSCAASVRIFWYNAMGWYRQAPGKERELVATISSSGSTNYADSVKGRFTISRDNAKNTVYLQMNSLKPEDTAVYYGAPGKTGFRYGGGDSTQEYWGQGTQVTVSS”, the “polyreactivity (PSR sort gate)” value is reported as “low polyreactivity”.
For “QVQLVESGGGLVQAGGSLRLSCAASGSIFWYYAMGWYRQAPGKERELVAAISSGGSTNYADSVKGRFTISRDNAKNTVYLQMNSLKPEDTAVYYCAAGYAVSWYSAYDSGYWGQCTQVTVSS”, the “polyreactivity (PSR sort gate)” value was “low polyreactivity”.
With “QVQLVESGGGLVQAGGRLRLSCAASGSTIRLYAKGWYRQAPGKERELVAAISVSGGSTHYADSVKGRFTISRDNAKNTVYLQMNSLKPEDTAVYYCNAAGNPVSRYHYDYWGQGTQVTVSS” the “polyreactivity (PSR sort gate)” value was “high polyreactivity”.
For “QVQLVESGGGLGQAGGSLRLSCAASGRIFRYNAMGWYRQAPGKERELVAAITGSGGSTYYADSVKGRFTISRDNAKNTVYLQMNSLKPEDTAVYYCNTYTYYSRMDYWGQGTQVTVSS”, the “polyreactivity (PSR sort gate)” value was “high polyreactivity”.
With “QVQLVESGGRLVQAGGSLRLSCAASGIIFPYYAMGWYRPAPGTVRELVAGISSSGGITYADSVKGRYTISRDNAKNTVYLPMNSLKPEDTAVYYCNAEYQWLEYDYWGQGTQVTVSS” the “polyreactivity (PSR sort gate)” value was “low polyreactivity”.
For “QVQLVESGGGLVQAGGSLRLSCAASGSTFWLYAMGWYRQAPGKERELVAAIRSGDRTNYADSEKGRFTISRDNAKNTVYLQMNSLKPEDTAVYYCAAVAYLNWTPHYYWGQRTQVTVSS”, the “polyreactivity (PSR sort gate)” value was “low polyreactivity”.
In the case of “QVQLVESGGGLVQAGGSLRLSCAASGSTFGRYAMGWYRQAPGKERELVAGISRGGTTYYADSVKGRFTISRDNAKNTVYLQLNSLKPEDTAVYYCAKLRWPVFDYWGQGTQVTVSS”, the “polyreactivity (PSR sort gate)” value is reported as “high polyreactivity”.
In the case of “QVQLVESGGGLVQAGGSLRLSCAAYGSTVSSNAMGWYRQAPGKERELVAGISSSDVGTYYADSVKGRFTISRDYANNTVYLEMNSLKPDDTAVYYCNADHTGQFPSKLFPLGDNYWGQGTQVTVSS”, the “polyreactivity (PSR sort gate)” value is reported as “low polyreactivity”.
In the case of “QVQLVESGGGLVQAGGSLRLSCAASGRTFRGNAMGWYRQAPGKERELVAAGGSTYYADSVKGRFTISRDNAKNTVYLQINSLKPEDTAVYYCAAALGFSRYSWFCYGYWGQGTQVTGSS”, the “polyreactivity (PSR sort gate)” value is reported as “low polyreactivity”.
For “QVQLVESGGGLVQAGGSLRLSCAAYGRIFNDYTMGWYRQAPGKERELVADITNRDTSTSYADSVKGRFIISRDNANNTVYLQMYILKPDDTAVYYCNAQQVIVVYRPGDYWGQGTQVTVSS”, the “polyreactivity (PSR sort gate)” value was “low polyreactivity”.
With “QVQLVESGGGIVQAGGSLRISCAASGYTFKWYDMGWYRQAPGKEWELVASISWRGGSTYYADSVKGRYTISRDNAKNTVYFQMNSLKPEDTAVYYCAASLWPDYEYDYWGQGTQVTVSS” the “polyreactivity (PSR sort gate)” value was “low polyreactivity”.
With “QVQLVESGGGLVQAGGSLRLSCAASGRIFVTYVMGWYRPAPGKERELVAAISRRGGTTYYADSVKGRFTISRDNAKNTVYLQMNSLKPEDTAVYYCNVARHYAVESGYWGQGTQVTVSS” the “polyreactivity (PSR sort gate)” value was “high polyreactivity”.
In the case of “QVQLVESGGGLVQAGGSLRLSCAASGRIFRPYAMGWYRQAPGKEREFVATIRFTTGRTYYADSVKGRFTISRDNAKNTVYLQMNSLKPEDTAVSYFAADFAFVNYAKISYTTHDYWGQGTQVTVSS”, the “polyreactivity (PSR sort gate)” value is reported as “high polyreactivity”.
For “QVQLVESGGGLVQAGGSLRLSCAASVITFYFNAMGWYRQAPGKERELVAVITSGGSTNYADSVKGRFTISRDNAKNTVNLQMNSLKPEDTAVYYCATDKSYSSWSAQYDYWGQGTQVTVSS”, the “polyreactivity (PSR sort gate)” value was “low polyreactivity”.
With “QVQLVESGGGLVQARGSLRLSCAASGFIFLYNAMGWYRQAPGKERELLAAITSSGGTTYYADSVKGRFTISRDNAKNTVYLQMNSLKPEDTAVYYCAARYTGRNGGSNTPEYDYWVQGTQVTVSS” the “polyreactivity (PSR sort gate)” value was “low polyreactivity”.
With “QVQLVESGGGLVQAGGSLRLSCAASGFIISNNAMGWYRQAPGKERELVAVINGGGSTYYADSVKGRFTISRDTAKNTVYLQMNSLKPEDTAVYYCNADRFADYDYWGQGTQVTVSS” the “polyreactivity (PSR sort gate)” value was “low polyreactivity”.
With “QVQLVESGGGLVQAGGSLRLSCAASGSTFVVNAMGWYRPAPGKERELVAAIDGSDGSTYYADSVKGRFTISRDNAKNTVYFQMNSLKPEDTAVYYCAAEVLGRPDVENDYWGQGTQVTVSS” the “polyreactivity (PSR sort gate)” value was “low polyreactivity”.
In the case of “QVQLVESGGGLDQAGGSLRLSCAASGRTFIYNAMGWYRQAPGKEREFVAAITWSGATTRYADSVKGRFTISRDNAKNTVYLQMNSLKPEDTAVYYCAKGGFYYYGWRSSMDYWGQGTQVTVSS”, the “polyreactivity (PSR sort gate)” value is reported as “high polyreactivity”.
For “QVQLVESGGGLVQAGGSLRLSCAASGRTLGPNPMGWYRPAPGKERELVAAITYNAGSTYYADSVKGRFTISRDNAKNTVYLQMNSLKPEDTAVYYCAARSTQKWTKYYYWGQGTQVTVSS”, the “polyreactivity (PSR sort gate)” value was “high polyreactivity”.
With “QVQLVESGGCIVQAGGSLRLSCAATGRTFYIYAMGWYRQPPGKESELVATITRGGSTNYADSVKGRFTSSRDNAKNTVYLQMNSLKPVDTAVYYCAAESYFTNWRNRYDYWGQGSQVTVSS” the “polyreactivity (PSR sort gate)” value was “high polyreactivity”.
For “QVQLVESGGGLVQAGGSLRLSCAASGFIFTLYTMGWYRPAPGKERELVAAIDKKGSTYYADSVKGRFTISRDNAKNTVYLQMNSLKPEDTAVYYCAADDRYRGNREDYWGQGTQVTVSS”, the “polyreactivity (PSR sort gate)” value was “low polyreactivity”.
With “QVQLVESGGGLVQAGGSLRLSCAASGFTFNANARGWYRQAPGKEREVVAVITRSGGRTYYADSVKGRFTISRDNAKNTVYFQMNSLNPEDTAVYYCAKEGPSRVYQGTDCASDSWGHGTQVTVSS” the “polyreactivity (PSR sort gate)” value was “high polyreactivity”.
For “QVQLVESGGGLVQAGGSLRLSCAASGRIVRRYARGWYIQAPGKERELVAAITNNGGNTYYADSVKGRFTISRDNAKNTVYLQMNSLKPEDTAVYYCKAGYYWGQGTQVTVSS”, the “polyreactivity (PSR sort gate)” value was “high polyreactivity”.
With “QVQLVESVGGLVQAGGSLRLSCAASGSTYPYYAMGWYRQAPGKERELVAASTSGGSTNYADSVKGRFTISRDNAKNTVYLQMNSLKPEDTSVYYCATDWSVDLWTWYYYWGQGTQVTVSS” the “polyreactivity (PSR sort gate)” value was “high polyreactivity”.
With “QVQLVESGGGLVQAGCSLRLSCAASGRTFRYYAMGWYRQAPGKERELVAAISGRGGSTYYADSVKGRFTISRDNAKNTVYFQMNSLKPEDTAVYYCADSFYSIRYDYWGQGTQVTVSS” the “polyreactivity (PSR sort gate)” value was “high polyreactivity”.
For “QVQLVESGGGLVQAGVSLPLICAASGFTIAYYTMGWYRQAPGKERELVAAISRRGSSTYYADSVMGRFTISRDNAKNTVDLQMNSLKPEDTAVYYCNKYSVLTPGYYYWGQGTQVTVSS”, the “polyreactivity (PSR sort gate)” value was “high polyreactivity”.
With “QVQLVVSGGGLVQAGGSLRLSCAASGITFFPYAMGWYRQAPGKERLLVASISDRGGTNYADSVKGRFTISRDNAKNTVYLQMNSLKPEDTAVYYSASDASTYAYYGGDYWGQGTQVTVSS” the “polyreactivity (PSR sort gate)” value was “low polyreactivity”.
For “QVQLVESGGGLVQAGGSLRLSCAASGFIFWWYNMGWYRQAPGKERELVAAISGSGGSTYYADSVKGRFTISRDNAKNTVYLQMNSLKPEHTAVYYCAALFGTGQFYYRYDYWGQGTQVTVSS”, the “polyreactivity (PSR sort gate)” value was “high polyreactivity”.
With “QVQLVESGGGLVQAGGSLRLSCAASGGTFGRYTMGWYRQAPGKERELVATITIGGGTNYADSVKGRFTISRDNAKNTVYLQMNSLKPEDTAVYYCARAWRWRCRYYEYGYWGQGTQVTVSS” the “polyreactivity (PSR sort gate)” value was “high polyreactivity”.
With “QVQLVESGGGLVQAGGSLRLSCAASGFIFATYVMGWYRQAPGKERELVAAISWSGSSTFYADSVKGRFTISRDNAKNTVYLQMNSLKPEDTAVYYCAALGDYVGNDYWGQGTQVTVSS” the “polyreactivity (PSR sort gate)” value was “high polyreactivity”.
With “QVQLVESGGGLVQAGGSLRLSCAASGRTFSTYTMGWYRQAPGKERELVAAITSSGGGTYYADSVKGRFTISRDNAKNTVYLQMNSLKPEDTAVSYCGTVRTYRPPVRRGYWGQGTQVTVSS” the “polyreactivity (PSR sort gate)” value was “high polyreactivity”.
In the case of “QVQLVESGGGLVQAGGSLRLSCAASGSIFIGYAMGWYRQAPGKERELVAAISWSGDSTYYADSVKGRFTISRDNAKNTVYLQMNSLKPEDTAVYYCARDKWGLRYAPTVDYWGQGTQVTVSS”, the “polyreactivity (PSR sort gate)” value is reported as “high polyreactivity”.
For “QVQLVESGGGLVQAGGSLRLSCAASGSIIKVYAMGWYRQAPGKERELVAAITSDGSTYYADSVKGRFTISRDNAKNTVYLQLNSLKPVDTAVYYCAASVYYLYFHGKYDYWGQGTQVTVSS”, the “polyreactivity (PSR sort gate)” value was “low polyreactivity”.
